Assay results as given in PMC2116009 (The Journal of Cell Biology, 1990).

Molecular target: chicken transferrin receptor, endogenous on chicken embryo fibroblasts (chicken (endogenous in CEF), UniProt Q90997 1-776)
Test: radioligand binding

Chain of chicken transferrin receptor, endogenous on chicken embryo fibroblasts (Q90997 whole entry): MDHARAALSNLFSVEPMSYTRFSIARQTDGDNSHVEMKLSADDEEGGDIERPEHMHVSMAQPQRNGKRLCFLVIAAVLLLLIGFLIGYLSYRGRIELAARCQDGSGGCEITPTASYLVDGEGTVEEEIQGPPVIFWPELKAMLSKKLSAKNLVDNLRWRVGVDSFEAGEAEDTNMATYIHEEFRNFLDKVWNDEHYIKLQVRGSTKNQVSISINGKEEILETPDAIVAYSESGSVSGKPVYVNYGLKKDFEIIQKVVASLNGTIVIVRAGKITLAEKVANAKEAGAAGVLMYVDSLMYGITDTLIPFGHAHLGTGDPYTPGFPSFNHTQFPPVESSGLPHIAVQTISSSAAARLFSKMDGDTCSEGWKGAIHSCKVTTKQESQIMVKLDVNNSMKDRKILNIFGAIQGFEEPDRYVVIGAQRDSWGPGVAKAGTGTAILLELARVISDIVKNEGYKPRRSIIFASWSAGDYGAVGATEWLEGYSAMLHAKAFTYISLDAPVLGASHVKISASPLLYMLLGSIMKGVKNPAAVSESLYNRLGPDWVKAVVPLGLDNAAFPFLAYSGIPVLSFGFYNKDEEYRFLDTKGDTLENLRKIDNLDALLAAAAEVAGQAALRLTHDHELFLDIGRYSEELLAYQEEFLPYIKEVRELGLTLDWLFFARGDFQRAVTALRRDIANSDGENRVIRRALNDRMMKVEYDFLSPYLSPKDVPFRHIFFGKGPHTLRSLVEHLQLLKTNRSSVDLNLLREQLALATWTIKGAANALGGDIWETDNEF

B1: ovotransferrin (ligand)
chain: APPKSVIRWCTISSPEEKKCNNLRDLTQQERISLTCVQKATYLDCIKAIANNEADAISLDGGQAFEAGLAPYKLKPIAAEVYEHTEGSTTSYYAVAVVKKGTEFTVNDLQGKTSCHTGLGRSAGWNIPIGTLLHRGAIEWEGIESGSVEQAVAKFFSASCVPGATIEQKLCRQCKGDPKTKCARNAPYSGYSGAFHCLKDGKGDVAFVKHTTVNENAPDQKDEYELLCLDGSRQPVDNYKTCNWARVAAHAVVARDDNKVEDIWSFLSKAQSDFGVDTKSDFHLFGPPGKKDPVLKDLLFKDSAIMLKRVPSLMDSQLYLGFEYYSAIQSMRKDQLTPSPRENRIQWCAVGKDEKSKCDRWSVVSNGDVECTVVDETKDCIIKIMKGEADAVALDGGLVYTAGVCGLVPVMAERYDDESQCSKTDERPASYFAVAVARKDSNVNWNNLKGKKSCHTAVGRTAGWVIPMGLIHNRTGTCNFDEYFSEGCAPGSPPNSRLCQLCQGSGGIPPEKCVASSHEKYFGYTGALRCLVEKGDVAFIQHSTVEENTGGKNKADWAKNLQMDDFELLCTDGRRANVMDYRECNLAEVPTHAVVVRPEKANKIRDLLERQEKRFGVNGSEKSKFMMFESQNKDLLFKDLTKCLFKVREGTTYKEFLGDKFYTVISSLKTCNPSDILQMCSFLEGK
  Kd: ~100 nM
